Assay results as given in patent US20210301011A1, “COMPOSITION FOR PROPHYLAXIS OR TREATMENT OF IL-8 RELATED DISEASES” (CHUGAI SEIYAKU KABUSHIKI KAISHA, priority 2016, published 2021).
“Also recorded” adds a separate entry of the source.

Key:
adenomyosis lesions = experiment: Adenomyosis lesions in surgically-induced endometriosis monkey models; type: in vivo, cynomolgus monkeys; details: one case per group, compared to vehicle group
Excerpt: After the final laparoscopic observation six months after the start of antibody administration in surgically-induced endometriosis monkey models, the uteri collected during autopsy were fixed with 10% neutral buffered formalin and HE-stained for observation. Endometrial tissues analogous to those of adenomyosis were strongly seen in the uterus in one case of the vehicle group as well as in one case of the antibody administration group. […] Thus, the monkeys were considered as being a human adenomyosis complication model, and the endometrial tissues in the myometria of these single cases were compared.

endometriosis lesions = type: in vivo, cynomolgus monkeys
Excerpt: Female cynomolgus monkeys of 8 to 14 years of age with regular sexual cycle (provided by the Tsukuba Primate Research Center at the National Institutes of Biomedical Innovation, Health and Nutrition) were laparotomized under anesthesia during the period corresponding to the luteal phase. The uterine corpus was removed by dissecting in a V shape. Then, the uterine corpus was cut into 5 to 10 mm cubes while leaving the smooth muscle layer of the uterus, and one and two pieces were transplanted onto the right abdominal wall and left abdominal wall (cranial and caudal sides), respectively, in such a manner that the endometrium part is in contact with the peritoneum by suturing with an absorbable suture and formed the transplant. After excision, the uterus was sutured with absorbable suture. Then, the remaining endometrial tissues were finely cut and suspended in 5 ml of 2 ng/ml Hepatocyte Growth Factor solution (R&D systems), and this was seeded in the peritoneal cavity for transplantation, followed by closure of the abdomen. Anesthesia was performed using balanced anesthesia of ketamine/xylazine (mixed at an adequate ratio of about 2:1); however, anesthesia was maintained with isoflurane depending on the maintenance period of anesthesia. The body temperature was maintained and controlled during surgery using a heating pad and the condition was monitored electrocardiographically. The antagonist Antisedan (at roughly the same amount as that of xylazine) and antibiotic cephradine were administered at the time of awakening after surgery. The pain reliever Zalban was administered for two days after surgery, and the monkeys were observed regularly every day to confirm the absence of post-surgical abnormalities. In laparoscopic observation, anesthesia and post-surgical monitoring were also performed in the same way.
Laparoscopic observation was carried out four months, nine months (3 months after administration), and 12 months (6 months after administration) following the surgical induction of endometriosis described above, and the pathological conditions of endometriosis were assessed as follows.
The abdomen was incised in the median line under anesthesia, and laparoscopic observation was performed by inserting a trocar and then introducing a laparoscope. The laparoscope was connected to a video system (KARL STORZ) and a monitor. The monitor was used for intraperitoneal observation, and the video system was used for recording. Then, the peritoneal cavity was filled with carbon dioxide gas using Intra-abdominal Insufflation Unit (OLYMPUS) to expand the abdomen, and graduated bars and forceps were inserted from the ventral portion. The size of the lesion was measured using the graduated bar or graduated forceps.
The sizes (width, height, and depth) of nodular lesions formed by suturing the endometrial tissues were measured and the volumes were calculated based on: width (mm)×height (mm)×depth (mm). The lesions and adhesion formed by seeding endometrial tissues after fine cutting were assessed for the site, area, and depth of adhesion and the size of lesion by laparoscopic observation based on modified r-AFS score modified for monkeys from the r-AFS score for clinical use.
1. The item on adhesion to the vesicouterine pouch was added, because in the monkey model, the frequency of adhesion to the urinary bladder is higher than in humans. The method for assessing adhesion to the urinary bladder was the same scoring as that used for adhesion to the Douglas' pouch. 2. Since monkey's body and organ sizes are smaller than those of humans, the criteria of lesion size scoring were altered to: <3 mm, 3-10 mm, and >10 mm
The grouping was performed in two separate times. After randomization based on the mean volume of nodular lesions and the number of measurable lesions in each individual, eventually, six individuals were assigned to vehicle group and seven individuals were assigned to the antibody H1009/L395-F1974m-administered group. […]

B1: H1009/L395-F1974m: H1009-F1974m (SEQ ID NO:36) heavy chain, L395-kOMT light chain; the anti-IL-8 antibody of Table 29 (antibody)
heavy: QVQLVESGGGLVQPGGSLRLSCAASGFTFSDYYLSWVRQAPGKGLEWVGLIRNKDNYHTPEYSASVKGRFTISRDDSKNSLYLTMSDLKTEDTAVYYCARENHRYDVELAYWGQGTLVTVSSASTKGPSVFPLAPSSKSTSGGTAALGCLVKDYFPEPVTVSWNSGALTSGVHTFPAVLQSSGLYSLSSVVTVPSSSLGTQTYICNVNHKPSNTKVDKKVEPKSCDKTHTCPPCPAPELRRGPSVFLFPPKPKDTLMISRTPEVTCVVVDVSHEDPEVKFNWYVDGVEVHNAKTKPREEQYNSTYRVVSVLTVLHQDWLNGKEYKCKVSNKGLPSSIEKTISKAKGQPREPQVYTLPPSREEMTKNQVSLTCLVKGFYPSDIAVEWESNGQPENNYKTTPPVLDSDGSFFLYSKLTVDKSRWQQGNVFSCSVLHEALHAHTTRKELSLSP
light: DIQMTQSPSSLSASVGDRVTITCRASEIIYSYLAWYQQKPGKAPKLLIYKAKTHADGVPSRFSGSGSGTDFTFTISSLQPEDIATYYCKHHFGFPRTFGQGTKVEIKRTVAAPSVFIFPPSDEQLKSGTASVVCLLNNFYPREAKVQWKVDNALQSGNSQESVTEQDSKDSTYSLSSTLTLSKADYEKHKVYACEVTHQGLSSPVTKSFNRGEC
histology of adenomyosis lesions (HE staining) (adenomyosis lesions): atrophy of endometrial epithelia in the adenomyosis lesions as well as reduction and atrophy of stromal cells were observed; also recorded: Atrophy of endometrial epithelium, and atrophy and reduction of stromal cells were observed | frequency of nodular lesions of type A: proliferative, ≥500 mm3 (endometriosis lesions; 10 mg/kg i.v. q4w, 6 months): 0% | frequency of nodular lesions of type B: proliferative, <500 mm^3 (endometriosis lesions; 10 mg/kg i.v. q4w, 6 months): 8% | frequency of nodular lesions of type C: no change (endometriosis lesions; 10 mg/kg i.v. q4w, 6 months): 33% | frequency of nodular lesions of type D: decreased (endometriosis lesions; 10 mg/kg i.v. q4w, 6 months): 58% | nodular lesions of type A: proliferative, ≥500 mm3 (lesions/total lesions) (endometriosis lesions; 10 mg/kg i.v. q4w, 6 months): (0/12) | nodular lesions of type B: proliferative, <500 mm^3 (lesions/total lesions) (endometriosis lesions; 10 mg/kg i.v. q4w, 6 months): (1/12) | nodular lesions of type C: no change (lesions/total lesions) (endometriosis lesions; 10 mg/kg i.v. q4w, 6 months): (4/12) | nodular lesions of type D: decreased (lesions/total lesions) (endometriosis lesions; 10 mg/kg i.v. q4w, 6 months): (7/12) | change of size r-AFS score (endometriosis lesions; after vs before administration, compared to vehicle group): tended to decrease | change of total r-AFS score (endometriosis lesions; after vs before administration, compared to vehicle group, p=0.0070): clearly decreased as compared to the vehicle group | change of adhesion score (adhesion r-AFS score) (endometriosis lesions; after vs before administration, compared to vehicle group, p=0.0096): clearly decreased as compared to the vehicle group | frequency of deep lesions (endometriosis gland ducts invaded up to the muscle layer of abdominal wall) (endometriosis lesions; anti-antibody-positive individuals excluded, vehicle 5/18 lesions): 1/11 | hemosiderin observed (lesions/total) (endometriosis lesions; antibody administration group, vehicle 9/16): 4/17 | hemosiderin observed (percent of lesions) (endometriosis lesions; antibody administration group, vehicle 56%): 24% | total modified r-AFS score before and after administration (endometriosis lesions; scores recorded by the practitioner during laparoscopic surgery, P=0.875): the score did not change
